Target: the molecule itself
Experiment: crystal structure; ΔNC-Fab complex 10-20 mg/mL, 25%-35% PEG400, 100 mM Ca-acetate or 300 mM KCl, pH 8.5-9.5, 22°C; dataset refined to 2.5 Å

B1: ΔNC CLC-ec1 (domain or fragment, Escherichia coli, UniProt P37019 1-460, looked up)
chain: MRRRQLIRQLLERDKTPLAILFMAAVVGTLVGLAAVAFDKGVAWLQNQRMGALVHTADNYPLLLTVAFLCSAVLAMFGYFLVRKYAPEAGGSGIPEIEGALEDQRPVRWWRVLPVKFFGGLGTLGGGMVLGREGPTVQIGGNIGRMVLDIFRLKGDEARHTLLATGAAAGLAAAFNAPLAGILFIIEEMRPQFRYTLISIKAVFIGVIMSTIMYRIFNHEVALIDVGKLSDAPLNTLWLYLILGIIFGIFGPIFNKWVLGMQDLLHRVHGGNITKWVLMGGAIGGLCGLLGFVAPATSGGGFNLIPIATAGNFSMGMLVFIFVARVITTLLCFSSGAPGGIFAPMLALGTVLGTAFGMVAVELFPQYHLEAGTFAIAGMGALLAASIRAPLTGIILVLEMTDNYQLILPMIITGLGATLLAQFTGGKPLYSAILARTLAKQEAEQ
notes: CLC-ec1, Cl-/H+ antiporter of Escherichia coli; Homodimer in the crystal (chains A and B); also called trimmed construct; source: E. coli, purified in decylmaltoside (His-tag removed, Superdex 200 gel filtration)
binding result: binds

— PMC3519907 (PLoS Biology, 2012)
